Assay results: patent US20210230570
Residue numbers refer to the chain shown, from its start. Names may count otherwise.

Key:
[1] = molecular target: Factor X (FX), substrate zymogen, P00742
[2] = molecular target: antithrombin III (plasma purified human AT-III), in complex with unfractionated heparin
[3] = molecular target: plasma purified human AT-III (Molecular Innovations)
[4] = molecular target: Antithrombin III (plasma purified human AT-III, Molecular Innovations), as AT-III/UFH complex
[5] = molecular target: plasma purified human antithrombin III (AT-III) in complex with unfractionated heparin (AT-III/UFH)
[6] = molecular target: plasma purified human AT-III (antithrombin III), in complex with full-length unfractionated heparin (AT-III/UFH)

Chain of Factor X, P00742 (P00742 whole entry, looked up): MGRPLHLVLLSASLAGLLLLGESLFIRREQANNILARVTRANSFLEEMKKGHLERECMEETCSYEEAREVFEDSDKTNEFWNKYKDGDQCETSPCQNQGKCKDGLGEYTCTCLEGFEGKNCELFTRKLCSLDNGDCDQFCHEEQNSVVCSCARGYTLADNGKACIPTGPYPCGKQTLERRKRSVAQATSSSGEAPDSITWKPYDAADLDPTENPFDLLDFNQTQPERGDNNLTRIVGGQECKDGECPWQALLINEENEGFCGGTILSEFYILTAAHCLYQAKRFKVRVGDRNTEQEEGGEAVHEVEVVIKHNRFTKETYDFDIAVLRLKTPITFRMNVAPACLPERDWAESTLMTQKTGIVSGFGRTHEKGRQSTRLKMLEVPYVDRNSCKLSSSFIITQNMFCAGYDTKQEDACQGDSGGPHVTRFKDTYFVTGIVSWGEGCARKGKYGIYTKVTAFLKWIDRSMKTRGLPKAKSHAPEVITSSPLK
Chain of Factor X (FX), P00742 (P00742 whole entry, looked up): as above
Chain of Factor X (FX), substrate zymogen, P00742 (P00742 whole entry, looked up): as above

B1: FIXa-R318Y/R338E/R403E/E410N (protein)
chain 1: YNSGKLEEFVQGNLERECMEEKCSFEEAREVFENTERTTEFWKQYVDGDQCESNPCLNGGSCKDDINSYECWCPFGFEGKNCELDVTCNIKNGRCEQFCKNSADNKVVCSCTEGYRLAENQKSCEPAVPFPCGRVSVSQTSKLTR
chain 2: VVGGEDAKPGQFPWQVVLNGKVDAFCGGSIVNEKWIVTAAHCVETGVKITVVAGEHNIEETEHTEQKRNVIRIIPHHNYNAAINKYNHDIALLELDEPLVLNSYVTPICIADKEYTNIFLKFGSGYVSGWGRVFHKGYSALVLQYLRVPLVDRATCLESTKFTIYNNMFCAGFHEGGRDSCQGDSGGPHVTEVEGTSFLTGIISWGEECAMKGKYGIYTKVSEYVNWIKNKTKLT
catalytic activity (kcat/KM) for activation of FX in the Xase complex (FVIIIa, PC/PS vesicles, Ca2+), fluorogenic FXa read-out [1]: displayed some of the greatest increases in catalytic activity
kcat/KM (M^-1s^-1), FX activation by FIXa in the Xase complex (Factor X (FX), P00742): 1.5e+08 M⁻¹ s⁻¹
KM (Catalytic activity of FIXa variants) (Factor X, P00742): 0.0455 µM
K0.5 [2]: 5.88 µM

B2: FIXa-K293A/R338A/R403A (protein)
chain 1: B1 chain 1
chain 2: B1 chain 2 with K113A, Y138R, E158A, E223A, N230E
kcat (FX activation in the Xase complex) (Factor X (FX), P00742): 1.6 s⁻¹
kcat/KM for FX activation (Xase assay with FVIIIa, PC/PS vesicles, Ca2+) (Factor X (FX), P00742): 2.5e+07 M⁻¹ s⁻¹
% of WT (kcat/KM) (Factor X, P00742): 53%
kcat/KM (Factor X, P00742): 2.5e+07 M⁻¹ s⁻¹
K0.5 [2]: > 0.999 µM
K0.5-mut/K0.5-wt [2]: > 51.7
K0.5-mut/K0.5-wt [3]: 16.9

B3: FIXa-R318Y/R338E/T343R/R403E/E410N (protein)
chain 1: B1 chain 1
chain 2: B1 chain 2 with T163R
catalytic activity (kcat/KM) for activation of FX in the Xase complex (FVIIIa, PC/PS vesicles, Ca2+), fluorogenic FXa read-out [1]: displayed some of the greatest increases in catalytic activity
KM (Factor X (FX), P00742): 0.0247 µM
KM (nM); Catalytic activity of FIXa variants (KM) (Factor X (FX), P00742): 22.3 nM
kcat of FX activation by FIXa in the Xase complex (FVIIIa, PC/PS vesicles, Ca2+) (Factor X (FX), P00742): 9.7 s⁻¹
kcat/KM (Factor X (FX), P00742): 5.4e+08 M⁻¹ s⁻¹
K0.5-mut/K0.5-wt (against Catalyst Biosciences WT FIXa) [4]: > 517

B4: FIXa D104N/K106S/Y155F/R318Y/R338E/R403E/E410N (mature FIX numbering) (protein)
chain 1: B1 chain 1 with D104N, K106S
chain 2: B1 chain 2
K0.5 [5]: > 10 µM

B5: FIXa Y155F/R318Y/R338E/R403E/E410N (mature FIX numbering) (protein)
chain 1: B1 chain 1
chain 2: B1 chain 2
K0.5 [5]: > 10 µM

B6: FIXa-K293E/R338E/R403E (protein)
chain 1: B1 chain 1
chain 2: B1 chain 2 with K113E, Y138R, N230E
kcat (FX activation in the Xase complex) (Factor X (FX), P00742): 0.8 s⁻¹
kcat/KM for FX activation (Xase assay with FVIIIa, PC/PS vesicles, Ca2+) (Factor X (FX), P00742): 1.7e+07 M⁻¹ s⁻¹
% of WT (kcat/KM) (Factor X, P00742): 36%
KM (Catalytic activity of FIXa variants) (Factor X, P00742): 0.05 µM
kcat/KM (Factor X, P00742): 1.7e+07 M⁻¹ s⁻¹
K0.5 [2]: > 0.999 µM
K0.5-mut/K0.5-wt [2]: > 51.7
K0.5-mut/K0.5-wt [3]: 14.2

B7: FIXa A103N/N105S/R318Y/R338E/R403E/E410N (mature FIX numbering) (protein)
chain 1: B1 chain 1 with A103N, N105S
chain 2: B1 chain 2
K0.5 [5]: 9.19 µM

B8: FIXa-K247N/N249S/R318Y/R338E/T343R/R403E/E410N (protein)
chain 1: B1 chain 1
chain 2: B1 chain 2 with K67N, N69S, T163R
catalytic activity (kcat/KM) for activation of FX in the Xase complex (FVIIIa, PC/PS vesicles, Ca2+), fluorogenic FXa read-out [1]: improved activity when combined with other mutations
KM (Factor X (FX), P00742): 0.0292 µM
kcat of FX activation by FIXa in the Xase complex (FVIIIa, PC/PS vesicles, Ca2+) (Factor X (FX), P00742): 10.6 s⁻¹

B9: FIXa-R318Y/R338E/E410N (protein)
chain 1: B1 chain 1
chain 2: B1 chain 2 with E223R
catalytic activity (kcat/KM) for activation of FX in the Xase complex (FVIIIa, PC/PS vesicles, Ca2+), fluorogenic FXa read-out [1]: displayed some of the greatest increases in catalytic activity
kcat/KM (M^-1s^-1), FX activation by FIXa in the Xase complex (Factor X (FX), P00742): 3.4e+08 M⁻¹ s⁻¹
kcat/KM for FX activation (Xase assay with FVIIIa, PC/PS vesicles, Ca2+) (Factor X (FX), P00742): 3.4e+08 M⁻¹ s⁻¹
KM (Catalytic activity of FIXa variants) (Factor X, P00742): 0.0142 µM
K0.5 [2]: 3.46 µM
K0.5-mut/K0.5-wt [2]: 179

B10: FIXa-K247N/N249S/R338E/T343R/R403E (protein)
chain 1: B1 chain 1
chain 2: B1 chain 2 with K67N, N69S, Y138R, T163R, N230E
catalytic activity (kcat/KM) for activation of FX in the Xase complex (FVIIIa, PC/PS vesicles, Ca2+), fluorogenic FXa read-out [1]: improved activity when combined with other mutations
kcat (Factor X (FX), P00742): 14.6 s⁻¹
kcat/KM (Factor X (FX), P00742): 5.6e+08 M⁻¹ s⁻¹

B11: FIXa D104N/K106S/R318Y/R338E/R403E/E410N (mature FIX numbering) (protein)
chain 1: B1 chain 1 with D104N, K106S
chain 2: B1 chain 2
K0.5 [5]: > 10 µM

B12: FIXa A103N/N105S/Y155F/R318Y/R338E/R403E/E410N (mature FIX numbering) (protein)
chain 1: B1 chain 1 with A103N, N105S
chain 2: B1 chain 2
K0.5 [5]: > 10 µM

B13: FIXa R318Y/R338E/R403E/E410N (mature FIX numbering) (protein)
chain 1: B1 chain 1
chain 2: B1 chain 2
K0.5 [5]: 5.88 µM

B14: FIXa D203N/F205T/R318Y/E410N (mature FIX numbering) (protein)
chain 1: B1 chain 1
chain 2: B1 chain 2 with D23N, F25T, E158R, E223R
K0.5 [5]: 1.28 µM

B15: FIXa-K228N/K247N/N249S (protein)
chain 1: B1 chain 1
chain 2: B1 chain 2 with K48N, K67N, N69S, Y138R, E158R, E223R, N230E
catalytic activity (kcat/KM) for activation of FX in the Xase complex (FVIIIa, PC/PS vesicles, Ca2+), fluorogenic FXa read-out [1]: demonstrated close to wild-type activity
K0.5-mut/K0.5-wt (against Catalyst Biosciences WT FIXa) [6]: 4.4
